IC50 data for eight molecules are collected here from patent publication US20260055143A1 (published 2026).

Where two headings read alike, the source gives them in different places. Where no end group is shown, it is not given here. [ ]: non-standard residue; d: D form. The star is where a group is joined. Biotin = O=C1N[C@H]2[C@H](CS[C@H]2CCCCC(=O)*)N1; pY = N[C@@H](Cc1ccc(OP(=O)(O)O)cc1)C(=O)O; Ahx = NCCCCCC(=O)O

Assay [1] concerns the target T1, Phosphopeptide KQVE{pTyr}LDLDLD.
T1 peptide: {Biotin-Ahx-Ahx}-KQVE[pY]LDLDLD
Kind of assay: competition binding.

Assay [2] concerns the target T2, Phosphopeptide QGVI{pTyr}SDLNLP.
T2 peptide: {Biotin-Ahx-Ahx}-QGVI[pY]SDLNLP
As to the kind of experiment: competition binding.

Assay [3] has as its target T3, pTyr-containing peptide (pEZ) derived from Ezrin, PPV{pTyr}EPVS (also: N-terminal fluorescein (FP) or biotin via two aminocaproic acids (ELISA)).
T3 peptide: PPV[pY]EPVS
Kind of assay: competition binding.

Assay [4] deals with T3, pTyr-containing peptide (pEZ) derived …. As to the kind of experiment: competition binding.
Assay [5] has as its target T4, Phosphopeptide PPPT{pTyr}TEVDP.
T4 peptide: {Biotin-Ahx-Ahx}-PPPT[pY]TEVDP
As to the kind of experiment: competition.

Assay [6] has as its target T5, pMT peptide EEPQ{pTyr}EEIPIY.
T5 peptide: {Biotin-Ahx-Ahx}-EEPQ[pY]EEIPIY
As to the kind of experiment: competition binding.

The target is the same in assay [7]. Kind of assay: competition binding.

B1: Ptn11_N^G-αA2-R sFes (protein)
chain: MKIEEHHHHHHSSGKLGLNDIFEAQKIEWHESSGEDLYFQSGTTMDDYKDDDDKGGSGSMTSRRWFHPNITRVEAENLLLTRGVDGSFLARPGQSQPDFVLSVRRNGAVTHIIIQNTGDYYDLYGGEKFATLAELVQYYMEHHGQLKEKNGDVIELKYPLNCADSR
As usually defined, the IC50 is the concentration needed to halve the response being measured. A low value points to inhibition by little substance. Turning to B1, the concentration for half-maximal inhibition (IC50) in assay [1] is 74 nM.

B2: Ptn11_N^G-αA2-R sSrc (protein)
chain: MKIEEHHHHHHSSGKLGLNDIFEAQKIEWHESSGEDLYFQSGTTMDDYKDDDDKGGSGSMTSRRWFHPNITRVEAENLLLTRGVDGSFLARPSETVKGAFALSVRRNGAVTHILIQNTGDYYDLYGGEKFATLAELVQYYMEHHGQLKEKNGDVIELKYPLNCADSR
Take B2: in assay [1], the IC50 was determined as 17 nM.

B3: Ptn6_C^G-αA2-R sFes (protein)
chain: MKIEEHHHHHHSSGKLGLNDIFEAQKIEWHESSGEDLYFQSGTTMDDYKDDDDKGSLNCSDPTSERWYHGHMSRGQAETLLQAKGEPWTFLVREGQSQPDFVLSVLSDQPKAGPGSPLRVTHIIVMCEGGRYTVGGLETFDSLTDLVEHFKKTGIEEASGAFVYLRQPYYATRVNAADSR
B3 had an IC50 in assay [2] of 900 nM.

B4: Fes^sSrc, Fes SH2 domain with the sSrc superbinder motif grafted (designed binder)
chain: MKIEEHHHHHHSSGKLGLNDIFEAQKIEWHESSGEDLYFQSGTTMDDYKDDDDKGGSEVQKPLHEQLWYHGAIPRAEVAELLVHSGDFLVRESETVKGAYALSVLWDGLPRHFLIQSLDNLYRLEGEGFPSIPLLIDHLLSTQQPLTKKSGVVLHRAVPSR
B4: the half-inhibitory concentration (IC50) in assay [3] was determined as 42 nM; in assay [4] it was 70 nM.

B5: Ptn11_C^G-αA2-R sSrc (protein)
chain: MKIEEHHHHHHSSGKLGLNDIFEAQKIEWHESSGEDLYFQSGTTMDDYKDDDDKGSLNCADPTSERWFHGHLSRKEAEKLLTEKGKHGSFLVRESETVKGAFALSVRTGDDKGESNDGKSKVTHVLIRCQELKYDVGGGERFDSLTDLVEHYKKNPMVETLGTVLQLKQPLNTTRINAADSR
In assay [5], B5 displayed a half-inhibitory concentration (IC50) of 1900 nM.

B6: Fes SH2 domain, wild type (Fes^wt) (other)
chain: WYHGAIPRAEVAELLVHSGDFLVRESQGKQEYVLSVLWDGLPRHFIIQSLDNLYRLEGEGFPSIPLLIDHLLSTQQPLTKKSGVVLHRAV
In the case of B6, the IC50 is 4600 nM in assay [3] and 6000 nM in assay [4].

B7: Src^sFes, Src SH2 domain with the sFes superbinder motif grafted (designed binder)
chain: MKIEEHHHHHHSSGKLGLNDIFEAQKIEWHESSGEDLYFQSGTTMDDYKDDDDKGGSDGIQAEEWYFGKITRRESERLLLNAENPRGTFLVREGQSQPDYVLSVSDFDNAKGLNVKHYIIRKLDSGGFYITSRTQFNSLQQLVAYYSKHADGLCHRLTTVCPSR
For B7, the IC50 in assay [6] is 4.3 nM; in assay [7], 21 nM.

B8: sFes^1 (SuperFes), superbinder Fes SH2 domain variant (designed binder)
chain: MKIEEHHHHHHSSGKLGLNDIFEAQKIEWHESSGEDLYFQSGTTMDDYKDDDDKGGSEVQKPLHEQLWYHGAIPRAEVAELLVHSGDFLVREGQSQPDYVLSVLWDGLPRHFIIQSLDNLYRLEGEGFPSIPLLIDHLLSTQQPLTKKSGVVLHRAVPSR
B8: the half-inhibitory concentration (IC50) came out at 1.6 nM in assay [3] and 4 nM in assay [4].
